Source: article PMC7145699, “Structural insights into target DNA recognition by R2R3-MYB transcription factors”

T1: WER K55A (Arabidopsis, UniProt Q9SEI0 12-130, K55A)
T1 sequence: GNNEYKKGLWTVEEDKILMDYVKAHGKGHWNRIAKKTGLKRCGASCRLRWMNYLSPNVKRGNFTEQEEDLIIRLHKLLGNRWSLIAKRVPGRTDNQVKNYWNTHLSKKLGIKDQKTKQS

T2: WER L59E (Arabidopsis, UniProt Q9SEI0 12-130, L59E)
T2 sequence: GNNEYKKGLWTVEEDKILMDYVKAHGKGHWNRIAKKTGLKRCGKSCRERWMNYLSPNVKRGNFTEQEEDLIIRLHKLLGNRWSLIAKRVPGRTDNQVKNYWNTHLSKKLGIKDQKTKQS

T3: WER L59A (Arabidopsis, UniProt Q9SEI0 12-130, L59A)
T3 sequence: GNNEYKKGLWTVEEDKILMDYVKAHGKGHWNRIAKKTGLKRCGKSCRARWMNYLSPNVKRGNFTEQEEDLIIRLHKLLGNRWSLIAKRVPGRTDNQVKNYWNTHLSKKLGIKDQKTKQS


Columns and labels:
Test in all cases: ITC; ITC: 150 mM NaCl, 20 mM HEPES pH 7.5, 25 C, 400 uM protein into 20 uM DNA; EMSA: 150 mM NaCl, 20 mM Tris-HCl pH 8.0, on ice 1 h, 0.1 uM DNA, 6% native PAGE 0.5x TBE
Details in all cases: protein: recombinant; tags: 6xHis-SUMO removed by Ulp1; blunt
WER K55A = biological target: T1, WER K55A
WER L59E [1] = biological target: T2, WER L59E
WER L59A = biological target: T3, WER L59A
WER L59E [2] = biological target: T2, WER L59E; remark: listed apart in the source

Row | Binder | binding result (WER L59A) | also measured
1 | GL2 promoter WER target DNA (dsDNA) DNA 1: AAATTCTCCAACCGCATTTTC DNA 2: GAAAATGCGGTTGGAGAATTT |  | binding signal (WER K55A): > 40 fold decrease in affinity vs WT; Kd (WER L59E [1]): 47.8 nM; Kd (WER L59A): 47 nM
2 | 5mC12 DNA (AA5mC) (dsDNA, 5mC at C12 of strand 1) DNA 1: AAATTCTCCAACCGCATTTTC DNA 2: GAAAATGCGGTTGGAGAATTT | binds | binding signal (WER L59E [2]): ~4 fold decrease in affinity vs N1
3 | A12:T11* (dsDNA) DNA 1: AAATTCTCCAAACGCATTTTC DNA 2: GAAAATGCGTTTGGAGAATTT | binds | 
4 | G12:C11* (dsDNA) DNA 1: AAATTCTCCAAGCGCATTTTC DNA 2: GAAAATGCGCTTGGAGAATTT | binds | 
5 | T12:A11* (dsDNA) DNA 1: AAATTCTCCAATCGCATTTTC DNA 2: GAAAATGCGATTGGAGAATTT | binds | 
